{"source": "paper PMC11970764", "origin": "cited, not measured here", "target": "HIF-1α PAS-B (Homo sapiens) (UniProt Q16665)", "sequence (Q16665 238-349)": "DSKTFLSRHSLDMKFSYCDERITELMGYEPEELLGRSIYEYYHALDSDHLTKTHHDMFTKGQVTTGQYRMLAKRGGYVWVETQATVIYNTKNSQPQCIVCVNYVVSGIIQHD", "test": "ITC"}
{"substance": "Cyclo-C(TAT)LLFVY", "values": [{"measurement": "Kd", "result": 124, "unit": "nM"}]}
